Assay results published in the supplement of paper PMC10126150.
± gives the standard deviation of the averaged measurements.

Each sequence was assayed on ATP (assay: switch fluorescence ratio, 500 uM ATP over buffer (Cy3 cluster intensity, sum of 5 cycles each) (fold (ratio)); higher = stronger signal-on switching upon ATP binding; sequences stand for … in TCGTCGGCAGCGTCAGATGTGTATAAGAGACAGTTTTTTTTTTTTTTTTTTTTTTTTT…TC). Settings: aptamer strand: ATP DNA aptamer (quencher-CACCTGGGGGAGTATTGCGGAGGAAGG + anchor), 100 nM annealed; ATP concentration: 500 uM.
Procedure, shortened: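 Between each of five buffer/ATP cycles, the flow-cell was stripped with NaOH and re-annealed. Each cycle imaged Cy3-labelled switching-strand clusters, annealed to 100 nM quencher-labelled ATP aptamer on a modified Illumina MiSeq flow-cell, first in selection buffer and then after 15 min with 500 uM ATP at 22 °C. The fluorescence ratio is summed target-cycle over summed buffer-cycle Cy3 intensity per cluster, averaged per switch-domain sequence, with clusters outside 100-1000 RFU excluded.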
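Further: ATP exposure 15 min at 22 °C before imaging.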

Compared with TGAGAGCAGG, TTTGGCCGGA is lower in switch fluorescence ratio: 1.08 ± 0.025 for the first, 0.985 ± 0.036 for the second.

AAGACCGGGA and AGTAGAGGAC are the same in switch fluorescence ratio: 1.01 ± 0.04 for the first, 1.01 ± 0.045 for the second.

CAAATGGTCT and GAGGATGTCT are within error of each other in switch fluorescence ratio: 1 ± 0.013 for the first, 0.99 ± 0.021 for the second.

GGTGGATTGC and CTAATTGCGG are within error of each other in switch fluorescence ratio: 1.04 ± 0.02 for the first, 1.01 ± 0.013 for the second.

TTCTCGGGTT and TAGGTTTGAA are within error of each other in switch fluorescence ratio: 0.99 ± 0.023 for the first, 0.9922 ± 0.0018 for the second.

TAGCGGGGCT and TGGTTGTTGC are within error of each other in switch fluorescence ratio: 1.04 ± 0.043 for the first, 0.998 ± 0.043 for the second.

First: GAATCGATAC
Second: GGGGGTGGAC
The switch fluorescence ratio of the first is higher: 1.76 ± 0.084 for the first, 1.01 ± 0.052 for the second.

GAGGGGTATG and TATGGAATGT are within error of each other in switch fluorescence ratio: 1 ± 0.019 for the first, 0.998 ± 0.0062 for the second.

TGTTTTGAGA and TCGGCGGCGG are within error of each other in switch fluorescence ratio: 1 ± 0.023 for the first, 0.974 ± 0.027 for the second.

CCTAAAAGTT and GGGGTCTTGG are within error of each other in switch fluorescence ratio: 1.01 ± 0.05 for the first, 1.03 ± 0.038 for the second.

AACTTTGACC and GATGGTTGCG are within error of each other in switch fluorescence ratio: 1.034 ± 0.0014 for the first, 1.02 ± 0.022 for the second.

TAAGATAAAT and GGGAGTTTAG are within error of each other in switch fluorescence ratio: 1 ± 0.021 for the first, 0.994 ± 0.016 for the second.

GTTTTTCGAT and GGCGGGGGGG are within error of each other in switch fluorescence ratio: 1.02 ± 0.001 for the first, 1.03 ± 0.048 for the second.

TAGAGTCCAT and TATGTTAAAG are within error of each other in switch fluorescence ratio: 1.02 ± 0.019 for the first, 0.996 ± 0.017 for the second.

Going from CCATGTGTGC to AAGAGAGGTG, the switch fluorescence ratio rises from 1.02 ± 0.027 to 1.07 ± 0.014.

AATCAGGACA and TCAGGGCTAA are within error of each other in switch fluorescence ratio: 0.9959 ± 0.0076 for the first, 1.02 ± 0.062 for the second.

CAGTGAGCTC and AAAGGGGGGA are within error of each other in switch fluorescence ratio: 0.981 ± 0.022 for the first, 0.995 ± 0.029 for the second.

GGAATAGTTT and TAGCTGGGGG are within error of each other in switch fluorescence ratio: 1.03 ± 0.047 for the first, 0.995 ± 0.021 for the second.

CGACTGATAT and TATTTAGAAG are within error of each other in switch fluorescence ratio: 1.078 ± 0.0078 for the first, 1.02 ± 0.054 for the second.

First: ATGTAGGTTG
Second: ACGATGACAC
The switch fluorescence ratio of the first is lower: 0.988 ± 0.029 for the first, 1.289 ± 0.0018 for the second.

GGTTTGCTAG and CTGACATGAG are within error of each other in switch fluorescence ratio: 1.04 ± 0.072 for the first, 1 ± 0.032 for the second.

Compared with GAACGCGATT, TCCTTGCTGT is lower in switch fluorescence ratio: 3.92 ± 1.3 for the first, 1.12 ± 0.095 for the second.

Going from TCGTTCGGCT to CGAGCAGTAG, the switch fluorescence ratio rises from 1.01 ± 0.044 to 3.57 ± 0.31.

Going from GGGCCACTCG to AGTTGGCTTA, the switch fluorescence ratio rises from 0.9716 ± 0.0096 to 1.01 ± 0.013.

GTGAGGGGTG and TTCCGTTTTT are within error of each other in switch fluorescence ratio: 0.996 ± 0.032 for the first, 1.51 ± 0.66 for the second.

ACCTTAAGGG and GGGTTGTGGG are within error of each other in switch fluorescence ratio: 1.01 ± 0.015 for the first, 1 ± 0.043 for the second.

TTGGCGTCAA and TGGGATTATT are within error of each other in switch fluorescence ratio: 1.36 ± 0.51 for the first, 1.02 ± 0.019 for the second.

GGATGTCACT and CTTTATGTCG are within error of each other in switch fluorescence ratio: 0.974 ± 0.016 for the first, 1.02 ± 0.048 for the second.

TATATATCTC and CGTAGTAGTG are within error of each other in switch fluorescence ratio: 0.9917 ± 0.0089 for the first, 0.993 ± 0.027 for the second.

GGTTTTAGGT and GATCGGGACT are within error of each other in switch fluorescence ratio: 0.988 ± 0.035 for the first, 0.9826 ± 0.0047 for the second.

First: TCGGCTTCCT
Second: ATGTAGGGTG
The switch fluorescence ratio of the first is higher: 1.27 ± 0.031 for the first, 1.008 ± 0.0039 for the second.

Compared with ATCCAGTGTC, ACCAAGGGTG is higher in switch fluorescence ratio: 1.057 ± 0.0061 for the first, 1.135 ± 0.0042 for the second.

AAAATTGTGT and GTTTAATGGG are within error of each other in switch fluorescence ratio: 1.01 ± 0.015 for the first, 0.999 ± 0.037 for the second.

AAAGGGGCTG and CCCTTTTGGG are within error of each other in switch fluorescence ratio: 0.98 ± 0.061 for the first, 0.997 ± 0.035 for the second.

Going from ATCTAAACGT to ATATCCAGGA, the switch fluorescence ratio falls from 1.0574 ± 0.00082 to 1.02 ± 0.018.

CTTTGTCTTA and AGGATTATGT are within error of each other in switch fluorescence ratio: 0.999 ± 0.05 for the first, 1.01 ± 0.035 for the second.

Compared with CGTAGAGCGG, AATTCCGATG is higher in switch fluorescence ratio: 1 ± 0.074 for the first, 1.29 ± 0.076 for the second.

TAAATGCGGG and AGAATGGTTT are within error of each other in switch fluorescence ratio: 0.975 ± 0.039 for the first, 0.985 ± 0.03 for the second.

TTAATCTGGG and TATACGGAAG are within error of each other in switch fluorescence ratio: 0.992 ± 0.016 for the first, 1.02 ± 0.046 for the second.

Compared with GGCCCGGAGC, GATTATTTAG is lower in switch fluorescence ratio: 1.24 ± 0.013 for the first, 0.997 ± 0.019 for the second.

Going from GAAGGAGGGG to GGTGGCTTAA, the switch fluorescence ratio falls from 1.06 ± 0.036 to 0.96 ± 0.024.

TTTGGGTAAG and AAGGGCGTCA are within error of each other in switch fluorescence ratio: 1 ± 0.024 for the first, 1.007 ± 0.0022 for the second.

GGCCCTTTGG and TTAAGGGTGT are within error of each other in switch fluorescence ratio: 0.984 ± 0.0082 for the first, 1.02 ± 0.04 for the second.

CAGATGTGTT and CAGTGTGGTC are within error of each other in switch fluorescence ratio: 0.9728 ± 0.0031 for the first, 0.979 ± 0.055 for the second.

TAAGGGTGGC and TTTTTTCAGG are within error of each other in switch fluorescence ratio: 1.04 ± 0.035 for the first, 1.03 ± 0.027 for the second.

TTATTTAATC and GATTAAAAT are the same in switch fluorescence ratio: 1.01 ± 0.038 for the first, 1.01 ± 0.013 for the second.

Going from ACGTCAGGGT to GTATAATGAT, the switch fluorescence ratio falls from 1.0361 ± 0.00046 to 0.977 ± 0.03.

GATATGGGTG and CACAATCGGG are within error of each other in switch fluorescence ratio: 1.04 ± 0.049 for the first, 1.005 ± 0.0088 for the second.

AGAGTGGAGG and CAGATGGTCG are within error of each other in switch fluorescence ratio: 1 ± 0.041 for the first, 0.938 ± 0.057 for the second.

TCCTGGCTTT and CAAAGCTATT are within error of each other in switch fluorescence ratio: 1.26 ± 0.29 for the first, 1.008 ± 0.006 for the second.

TTGTCTTTTT and TCATGAATTT are within error of each other in switch fluorescence ratio: 0.998 ± 0.015 for the first, 0.9885 ± 0.0089 for the second.

TTAGTAGAAC and GGATTCGTAA are within error of each other in switch fluorescence ratio: 0.993 ± 0.013 for the first, 0.998 ± 0.01 for the second.

TTTGAAGCCG and CCAGTTAGGA are within error of each other in switch fluorescence ratio: 0.989 ± 0.024 for the first, 1.01 ± 0.033 for the second.

Going from GGATAAAGGT to TCTTGTAATC, the switch fluorescence ratio rises from 0.978 ± 0.018 to 1.07 ± 0.055.

GGGGTGTGAG and GGAATTGTTT are within error of each other in switch fluorescence ratio: 0.989 ± 0.017 for the first, 0.974 ± 0.048 for the second.

TGATGGCCGA and AGGTCATTGA are within error of each other in switch fluorescence ratio: 0.985 ± 0.019 for the first, 1 ± 0.021 for the second.

TTTGATATTG and AACAGTTGAA are within error of each other in switch fluorescence ratio: 0.994 ± 0.038 for the first, 1.0083 ± 0.00099 for the second.

Compared with AAAGTTCGAG, AGAACGCGTA is higher in switch fluorescence ratio: 0.99 ± 0.021 for the first, 1.03 ± 0.013 for the second.

AGTCGGGATG and AGTTTTCCTG are within error of each other in switch fluorescence ratio: 0.963 ± 0.035 for the first, 0.985 ± 0.015 for the second.

AATTGTGGAG and TATGGCGCAT are within error of each other in switch fluorescence ratio: 0.966 ± 0.023 for the first, 0.993 ± 0.043 for the second.

CAAGGGGCAC and AGCTTAGTTT are within error of each other in switch fluorescence ratio: 1.02 ± 0.02 for the first, 0.975 ± 0.028 for the second.

Going from CTGGGAGTGG to TTGCTGATTC, the switch fluorescence ratio falls from 1.04 ± 0.013 to 0.9811 ± 0.0067.

CACATTTTTG and CTTTTATCAC are within error of each other in switch fluorescence ratio: 0.995 ± 0.023 for the first, 1.25 ± 0.43 for the second.

Going from GTTGTACTTG to GTTGAAGG, the switch fluorescence ratio rises from 0.988 ± 0.005 to 0.9986 ± 0.0032.

Going from AAACACTGGG to CTTACCTTGC, the switch fluorescence ratio rises from 0.9638 ± 0.0073 to 1.99 ± 0.44.

Compared with TGAAATATCA, GGCGCGCGGT is lower in switch fluorescence ratio: 1.0208 ± 0.00019 for the first, 0.98 ± 0.0095 for the second.

CATTTAGAGG and TATATCTAAA are within error of each other in switch fluorescence ratio: 1.007 ± 0.0073 for the first, 0.973 ± 0.044 for the second.

AATGAGTGTG and TGATGGGGTG are within error of each other in switch fluorescence ratio: 0.9805 ± 0.0029 for the first, 0.99 ± 0.012 for the second.

TGTGAAGTTT and GGTTACCGTG are within error of each other in switch fluorescence ratio: 0.9595 ± 0.0076 for the first, 0.997 ± 0.033 for the second.

Going from GCCGTGTTTT to GCTAATTGTG, the switch fluorescence ratio falls from 1.006 ± 0.0018 to 0.975 ± 0.0036.

TGAGCAGCTG and GTCACCCTTT are within error of each other in switch fluorescence ratio: 0.953 ± 0.058 for the first, 1.01 ± 0.014 for the second.

Going from TGCTGGGTGG to GGGCAAACAG, the switch fluorescence ratio falls from 1.01 ± 0.02 to 0.959 ± 0.029.

CGGATTTTTT and TTTAGTGTTG are within error of each other in switch fluorescence ratio: 0.995 ± 0.021 for the first, 0.957 ± 0.041 for the second.

TGCATTGGAG and GACACGGGGT are within error of each other in switch fluorescence ratio: 1.01 ± 0.043 for the first, 1 ± 0.071 for the second.

Going from ACAGGGTAGC to TGTAATACGT, the switch fluorescence ratio rises from 1 ± 0.015 to 1.17 ± 0.019.

Compared with ATTGGGATGC, AAGTTGAGTT is lower in switch fluorescence ratio: 1.04 ± 0.02 for the first, 1.007 ± 0.0017 for the second.

Compared with TTTGAGAATT, GACAGAGCCA is higher in switch fluorescence ratio: 1.01 ± 0.032 for the first, 1.1036 ± 0.0011 for the second.

ATGTTTTTGG and TTGGTTTTTC are within error of each other in switch fluorescence ratio: 1.1 ± 0.22 for the first, 1.01 ± 0.025 for the second.

Sequence TGATGCACGG has a switch fluorescence ratio of 1.04 ± 0.021.
